Experimental data as given in the supplement of paper PMC6757056.
± gives the standard deviation of the averaged measurements.

B1: library; a variant is named by its letters at N, in order (parent)
chain: GCUGUCACCGGUGCUUGGUACGUUAUAUUCAGCCGGUCUGAUGAGUCUNNNNNNAGACGAAACAGC

What was measured:
(6R,S)-folinic acid [1] = variants of: B1; assay: normalized RNA/DNA level without ligand (relative to sTRSVctl = 100) (log10 (% of sTRSVctl)); HEK293T overexpressing SLC46A1; higher = less ribozyme self-cleavage, higher mRNA level; conditions: without (6R,S)-folinic acid; ligand present: no
Outline: (§1)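 For each 6-well well, 4 µg of library plasmid encoding mCherry-linked ribozyme switches, or eGFP-linked ones in some ligand experiments, was transfected into HEK293T. Any ligand was added 1 h before transfection, and RNA was extracted with EDTA 72 h after it, then reverse-transcribed, amplified, barcoded and sequenced. RNA level was obtained by dividing RNA reads by DNA reads, normalizing to a spiked-in non-cleaving sequence or to the top sequences, then scaling and log-transforming. The top set was 25 sequences, scaling was ×100 with log10, and ≥100 DNA reads were required.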

(6R,S)-folinic acid [2] = variants of: B1; assay: normalized RNA/DNA level with ligand (relative to sTRSVctl = 100) (log10 (% of sTRSVctl)); HEK293T overexpressing SLC46A1; ligand concentration (+) RNA-Seq: 6 mM; higher = less ribozyme self-cleavage, higher mRNA level; conditions: with (6R,S)-folinic acid; ligand present: yes
Outline: as §1

Variant	normalized RNA/DNA level without ligand (log10) ((6R,S)-folinic acid [1])	normalized RNA/DNA level with ligand (log10) ((6R,S)-folinic acid [2])
AUUCCG	1.997 ± 0.0068	2.037 ± 0.018
CCUGUU	2.02 ± 0.021	2.015 ± 0.014
CUAAAC	1.983 ± 0.006	1.992 ± 0.018
UUGGUC	2.047 ± 0.0021	2.041 ± 0.003
AGGCCG	2.039 ± 0.017	2.02 ± 0.039
UCGAUU	2.02 ± 0.03	2.04 ± 0.053
GCAUGU	1.983 ± 0.0026	2.02 ± 0.055
GCAUGG	1.944 ± 0.0075	2.04 ± 0.028
GCAUGC	2.025 ± 0.0027	1.999 ± 0.0055
ACGUAU	1.943 ± 0.005	2.02 ± 0.008
ACGUAC	2.018 ± 0.0052	2.02 ± 0.046
ACAACG	1.991 ± 0.019	2.06 ± 0.021
CGCAAG	2.011 ± 0.0045	2.02 ± 0.025
ACCGGG	2.068 ± 0.0057	2.06 ± 0.053
UUGGCC	2.046 ± 0.019	2.03 ± 0.05
UUGGCU	2.055 ± 0.0023	2.04 ± 0.041
CAGCAC	2.03 ± 0.022	1.98 ± 0.045
GCACUG	2 ± 0.024	2.02 ± 0.056
GCACUU	2.001 ± 0.017	2.01 ± 0.021
CGGUCU	2.1 ± 0.035	2.05 ± 0.049
CAAAUA	1.95 ± 0.01	1.99 ± 0.025
UUAUAA	1.925 ± 0.0034	1.981 ± 0.017
UUAUAU	1.9416 ± 0.0019	2 ± 0.057

Variant	normalized RNA/DNA level without ligand (log10) ((6R,S)-folinic acid [1])	normalized RNA/DNA level with ligand (log10) ((6R,S)-folinic acid [2])
GUUUUU	2.015 ± 0.0093	2 ± 0.02
UGCAUC	2.07 ± 0.032	2.035 ± 0.015
ACACGG	1.934 ± 0.013	2.02 ± 0.04
ACACGC	1.981 ± 0.015	1.99 ± 0.049
CCCUGC	2.08 ± 0.025	2.08 ± 0.014
CCCAAA	2.02 ± 0.025	2.026 ± 0.0099
GGAGCG	1.939 ± 0.011	2.02 ± 0.041
AAUUAC	1.982 ± 0.0057	2.01 ± 0.026
CUGAUU	2.015 ± 0.007	2.05 ± 0.052
GAUCCA	2.034 ± 0.0061	2.02 ± 0.039
AGAGGG	1.78 ± 0.02	2.01 ± 0.015
AGAGGU	1.889 ± 0.0033	2 ± 0.076
GGAUCU	2.037 ± 0.0059	2.03 ± 0.045
GGAUCG	2.0373 ± 0.00033	2.08 ± 0.045
UCGAGG	1.938 ± 0.017	2 ± 0.025
ACGCAC	2.024 ± 0.016	2.03 ± 0.027
GCGAGG	1.98 ± 0.023	2.05 ± 0.046
GCGAGU	1.99 ± 0.04	2.03 ± 0.051
CCUUCC	2.067 ± 0.019	2.01 ± 0.024
UCUGCA	1.9967 ± 0.0014	2.06 ± 0.022
GUCCCU	2.05 ± 0.021	2.03 ± 0.03
CUUCAG	2.027 ± 0.015	2.099 ± 0.011
ACGAGC	2.005 ± 0.012	2.041 ± 0.019

Variant	normalized RNA/DNA level without ligand (log10) ((6R,S)-folinic acid [1])	normalized RNA/DNA level with ligand (log10) ((6R,S)-folinic acid [2])
CAGUCA	1.967 ± 0.0097	1.96 ± 0.058
GUCCGC	2.07 ± 0.011	2.045 ± 0.0035
UAUGUA	1.8903 ± 0.0016	1.99 ± 0.057
CUACUU	2.03 ± 0.022	2.02 ± 0.039
ACACCU	2.0447 ± 0.0018	2.05 ± 0.048
AAACCC	2.048 ± 0.0094	2.032 ± 0.0089
CGAGGU	2.02 ± 0.02	2.02 ± 0.054
UCCGGA	1.99 ± 0.038	2.02 ± 0.063
AUGGGU	1.82 ± 0.006	1.998 ± 0.0034
GACUCA	2.004 ± 0.0082	1.98 ± 0.028
GACCGG	2.08 ± 0.053	2.0517 ± 0.0019
GCCUCG	2.034 ± 0.016	2.04 ± 0.046
UUUAAC	1.978 ± 0.011	1.99 ± 0.028
ACUCUC	2.086 ± 0.0057	2.06 ± 0.024
CUAUGA	2.02 ± 0.013	2.02 ± 0.027
GCUCUU	2.038 ± 0.014	1.998 ± 0.011
UUCCCU	2.058 ± 0.011	2.06 ± 0.048
GUCAAC	2.0058 ± 0.0019	2.03 ± 0.03
CCUCUA	2.029 ± 0.0036	2.03 ± 0.031
GAGGCU	2.073 ± 0.0028	2.04 ± 0.022
UCCUAC	2.024 ± 0.015	2.05 ± 0.026
AGGACU	1.993 ± 0.0073	2.009 ± 0.017
CUCUUU	2.013 ± 0.011	2.02 ± 0.041

Variant	normalized RNA/DNA level without ligand (log10) ((6R,S)-folinic acid [1])	normalized RNA/DNA level with ligand (log10) ((6R,S)-folinic acid [2])
CCGAUG	2 ± 0.023	1.99 ± 0.036
CGGUAG	1.93 ± 0.025	1.963 ± 0.018
GUCAUA	1.994 ± 0.0035	1.99 ± 0.055
UGGAGC	1.996 ± 0.0034	2.06 ± 0.036
GGUCAA	1.99 ± 0.028	2 ± 0.024
UCAUAG	1.829 ± 0.0068	1.984 ± 0.015
AGAGCG	1.775 ± 0.0033	1.97 ± 0.029
GGGCUA	2.048 ± 0.0023	2.05 ± 0.033
AGUCCC	2.019 ± 0.0039	2.046 ± 0.0072
AGUCCG	1.988 ± 0.0076	2 ± 0.025
UAACUC	2.046 ± 0.0055	2.03 ± 0.045
AUUCGA	1.992 ± 0.0073	2.03 ± 0.035
CUCGGG	2.0341 ± 0.00097	2.07 ± 0.046
UGGUCC	2.039 ± 0.0085	2.035 ± 0.016
AGUCAC	2.02 ± 0.024	2.02 ± 0.026
AUUGUA	1.941 ± 0.016	2 ± 0.02
ACAUUC	2.072 ± 0.0067	2.027 ± 0.0058
UGUUUA	1.978 ± 0.0041	2.055 ± 0.0056
UGGGUC	2.11 ± 0.022	2.06 ± 0.034
UGGGUU	1.9881 ± 0.0019	2.018 ± 0.016
UUUCGC	2.01 ± 0.016	2 ± 0.011
ACUGUC	2.08 ± 0.024	2.04 ± 0.059
GUGCCC	2.032 ± 0.012	2.02 ± 0.074

Variant	normalized RNA/DNA level without ligand (log10) ((6R,S)-folinic acid [1])	normalized RNA/DNA level with ligand (log10) ((6R,S)-folinic acid [2])
CAACCU	2.051 ± 0.012	2.05 ± 0.035
AAAUCA	1.996 ± 0.0046	2.02 ± 0.047
CGAGUA	1.965 ± 0.0014	2 ± 0.04
GGCUAC	2.02 ± 0.042	2.05 ± 0.021
AAGCGU	1.956 ± 0.0071	2.02 ± 0.04
UUUCUA	2.019 ± 0.011	2.042 ± 0.0037
UCGCCC	2.05 ± 0.039	2.04 ± 0.033
AUCAAG	1.93 ± 0.021	2 ± 0.026
GAUUCC	2.064 ± 0.0098	2.043 ± 0.019
GAUACC	2.003 ± 0.0086	2.026 ± 0.0083
GAAACG	1.961 ± 0.0057	2 ± 0.038
GAAACC	2.035 ± 0.013	2.03 ± 0.033
GUCUUA	2.03 ± 0.025	2.034 ± 0.013
GCAGUC	2.046 ± 0.0028	2.05 ± 0.048
AGGGAA	1.965 ± 0.0039	2.01 ± 0.025
GGACAG	1.954 ± 0.0092	1.99 ± 0.052
GAGUCG	1.984 ± 0.019	2 ± 0.034
CCCGAA	2.029 ± 0.0067	2.02 ± 0.056
UUCUUC	2.05 ± 0.028	1.996 ± 0.012
UUCCGG	2.025 ± 0.006	2.03 ± 0.031
CGUUCC	2.07 ± 0.026	2.028 ± 0.017
AGUGGC	2.042 ± 0.01	2.04 ± 0.06
UACCAA	1.966 ± 0.0066	1.99 ± 0.02
